Measured values as given in US20170291955A1 (AstraZeneca / MedImmune, published 2017).

T1: human HER4 recombinant extracellular domain protein (human, UniProt Q15303 26-651)
T1 construct: extracellular domain
T1 sequence (looked up): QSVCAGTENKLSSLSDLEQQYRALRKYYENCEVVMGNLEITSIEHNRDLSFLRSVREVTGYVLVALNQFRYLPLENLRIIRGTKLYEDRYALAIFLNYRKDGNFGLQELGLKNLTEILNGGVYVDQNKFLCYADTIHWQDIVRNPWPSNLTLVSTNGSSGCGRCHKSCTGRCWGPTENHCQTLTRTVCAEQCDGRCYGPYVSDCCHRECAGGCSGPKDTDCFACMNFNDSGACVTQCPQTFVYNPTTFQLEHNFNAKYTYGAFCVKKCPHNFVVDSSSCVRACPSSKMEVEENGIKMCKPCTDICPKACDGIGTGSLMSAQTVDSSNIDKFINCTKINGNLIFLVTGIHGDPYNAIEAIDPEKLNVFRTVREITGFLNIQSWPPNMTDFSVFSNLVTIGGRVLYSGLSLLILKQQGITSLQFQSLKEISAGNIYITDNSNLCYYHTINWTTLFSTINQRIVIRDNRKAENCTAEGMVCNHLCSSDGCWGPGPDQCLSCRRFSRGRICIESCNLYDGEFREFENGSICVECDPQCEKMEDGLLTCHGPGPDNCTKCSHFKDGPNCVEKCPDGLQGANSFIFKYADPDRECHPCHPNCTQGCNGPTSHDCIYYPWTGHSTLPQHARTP

T2: human FcγRIIA (human, UniProt P12318 36-218)
T2 construct: also called FcgRIIa
T2 sequence (looked up): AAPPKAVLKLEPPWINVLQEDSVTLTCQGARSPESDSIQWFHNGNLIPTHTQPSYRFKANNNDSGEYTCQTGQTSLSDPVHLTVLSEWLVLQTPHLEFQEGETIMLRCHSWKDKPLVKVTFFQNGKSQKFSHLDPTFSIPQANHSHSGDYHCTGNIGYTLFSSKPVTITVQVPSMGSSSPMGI

T3: human FcγRIIb (human, UniProt P31994 43-217)
T3 construct: also called FcgRIIb
T3 sequence (looked up): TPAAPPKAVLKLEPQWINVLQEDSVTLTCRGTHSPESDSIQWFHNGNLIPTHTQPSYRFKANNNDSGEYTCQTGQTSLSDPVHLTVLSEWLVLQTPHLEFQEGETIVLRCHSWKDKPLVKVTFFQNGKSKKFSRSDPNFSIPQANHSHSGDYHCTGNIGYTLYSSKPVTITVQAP

B1: Bs2Ab-39SH (bispecific antibody, human IgG1, kappa)
heavy: not shown
light: DIVMTQTPLSLSVTPGQPASISCKSSQSVFFRSNNKNILAWYLQKPGQPPQLLIYWASSRESGVPDRFSGSGSGTDFTLKISRVEAEDVGVYYCQQYFGSPFTFGPGTKVDIKRTVAAPSVFIFPPSDEQLKSGTASVVCLLNNFYPREAKVQWKVDNALQSGNSQESVTEQDSKDSTYSLSSTLTLSKADYEKHKVYACEVTHQGLSSPVTKSFNRGEC
B2: Bs3Ab-39SH (bispecific antibody, human IgG1, kappa)
heavy: not shown
light: B1 light
B3: Bs4Ab-39SH (bispecific antibody)
heavy: not shown
light: B1 light
B4: Bs2-4T (bispecific antibody, name in EU numbering)
heavy: not shown
light: B1 light
modifications: tubulysin 1508 (Compound T32) on engineered Cys 239 and Cys 442 (EU index), thiol-maleimide linkage
notes: Antibody-drug conjugate, DAR about 4; also called Bs2Ab-4T; Bs2Ab-39SH-(FCC) construct conjugated to 4 tubulysins
B5: Bs4-4T (bispecific antibody)
heavy: not shown
light: B1 light
modifications: tubulysin 1508 (Compound T32) on engineered Cys 239 and Cys 442 (EU index), thiol-maleimide linkage
notes: Antibody-drug conjugate, DAR about 4; also called Bs4Ab-4T; Bs4Ab-39SH-(FCC) conjugated to 4 tubulysins
B6: Bs4Ab-39SH_aFuc (bispecific antibody)
heavy: not shown
light: B1 light
notes: also called afucosylated Bs4Ab-39SH; homogenously afucosylated Bs4Ab-39SH
B7: Bs2Ab-39SH_aFuc (bispecific antibody, human IgG1, kappa)
heavy: not shown
light: B1 light
notes: also called afucosylated Bs2Ab-39SH; homogenously afucosylated Bs2Ab-39SH

What follows are binders tested against T4, human EGFR recombinant extracellular domain protein (human, UniProt P00533 25-645) (assay: capture ELISA as in Example 1).
T4 construct: extracellular domain
Method: (§1) Antibody to be tested was prepared by diluting in a stepwise 1:3 serial dilution ranging from 50 nM down to 0.28 pM and then added to the wells in duplicate. After one hour of incubation, plates were washed, and goat anti-human IgG Fab HRP-conjugated secondary antibody was added to each well and the plates were incubated for 1 hour. The plates were washed and TMB substrate was added and incubated for 5-20 min to allow color development. The stop solution was added to the wells at the end of reaction and the plates were read at 450 nm. Binding signal (absorbance at 450 nm) was plotted against antibody concentration using Prism software.
B1: no binding. B2: no binding. B3: no binding. B4: no binding. B5: no binding.

What follows are binders tested against T5, human HER3 recombinant extracellular domain protein (human, UniProt P21860 20-643) (assay: capture ELISA as in Example 1).
T5 construct: extracellular domain
Method: as §1
B1: no binding. B2: no binding. B3: no binding. B4: no binding. B5: no binding.

These binders were tested against T1, human HER4 recombinant extracellular … (assay: capture ELISA as in Example 1).
Method: as §1
B1: no binding. B2: no binding. B3: no binding. B4: no binding. B5: no binding.

The binders below were run against C1q (Homo sapiens (Human), UniProt P02745 23-245; P02746 28-253; P02747 29-245) (assay: BIAcore per table head; method for C1q not described).
C1q, sequence (P02745 23-245 limits assumed, chain 1 of 3): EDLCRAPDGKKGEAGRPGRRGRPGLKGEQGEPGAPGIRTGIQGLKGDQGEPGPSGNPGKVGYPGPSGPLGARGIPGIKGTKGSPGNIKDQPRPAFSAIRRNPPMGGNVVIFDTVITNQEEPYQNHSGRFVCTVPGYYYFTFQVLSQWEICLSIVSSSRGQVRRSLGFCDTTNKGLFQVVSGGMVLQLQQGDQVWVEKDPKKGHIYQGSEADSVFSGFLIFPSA
C1q, sequence (P02746 28-253 limits assumed, chain 2 of 3): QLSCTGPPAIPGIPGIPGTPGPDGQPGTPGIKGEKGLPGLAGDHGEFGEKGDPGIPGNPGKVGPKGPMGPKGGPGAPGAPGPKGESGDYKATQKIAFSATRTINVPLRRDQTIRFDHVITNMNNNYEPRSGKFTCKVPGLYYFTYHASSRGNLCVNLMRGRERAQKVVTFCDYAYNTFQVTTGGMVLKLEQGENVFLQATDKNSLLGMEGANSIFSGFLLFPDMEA
C1q, sequence (P02747 29-245 limits assumed, chain 3 of 3): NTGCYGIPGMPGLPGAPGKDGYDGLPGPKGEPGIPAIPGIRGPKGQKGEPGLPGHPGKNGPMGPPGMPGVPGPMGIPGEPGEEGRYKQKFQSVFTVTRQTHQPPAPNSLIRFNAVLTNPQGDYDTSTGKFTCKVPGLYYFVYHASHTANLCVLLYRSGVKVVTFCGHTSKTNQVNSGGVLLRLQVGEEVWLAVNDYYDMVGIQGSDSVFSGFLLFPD
With B1 the Kd was 75.6 nM. Binder B6 has a Kd of 446 nM. Binder B3 has a Kd of 88.6 nM. Work on B7 yielded a Kd of 130 nM.

What follows are binders tested against T6, human FcγRI (human, UniProt P12314 16-288) (assay: SPR, antibody immobilised, receptor injected, steady-state fit (table head: BIAcore; paragraph 688: ProteOn XPR36)).
T6 construct: also called FcgRI
T6 sequence (P12314 16-288 limits assumed): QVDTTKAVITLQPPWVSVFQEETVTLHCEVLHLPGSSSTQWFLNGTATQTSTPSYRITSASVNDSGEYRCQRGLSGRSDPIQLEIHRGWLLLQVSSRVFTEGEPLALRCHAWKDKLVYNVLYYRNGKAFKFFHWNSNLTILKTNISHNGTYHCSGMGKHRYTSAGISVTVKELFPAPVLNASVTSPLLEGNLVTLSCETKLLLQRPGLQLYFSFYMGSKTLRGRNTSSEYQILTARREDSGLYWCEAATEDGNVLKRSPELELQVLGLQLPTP
Method: (§2) The binding constants (KD) for the binding of anti-HER2 bispecific antibodies to human FcγRs were measured on a ProteOn XPR36 instrument. Briefly, the bispecific antibodies were immobilized at high density on a GLC sensor chip using a standard amino coupling chemistry as outlined by the instrument manufacturer. The final surface density of IgG measured approximately 3000 RU. A reference flow cell was also prepared on this sensor chip using the identical immobilization protocol minus protein. […] Each concentration of FcγR was injected over both the bispecific antibody and reference cell surfaces at a flow rate of 25 μL/min for 8 min, during which binding data were collected. Between injections, the surfaces were regenerated (i.e., bound FcγR was removed) with a 60-sec pulse of 5 mM HCl. Several buffer injections were also interspersed throughout the injection series. Later, one of these buffer injections along with the reference cell data was used to correct the binding data for any injection artifacts (e.g., nonspecific binding) through a technique commonly referred to as “double-referencing” (Myszka, 1999). After all binding data were collected, individual data sets were averaged for binding (Response at equilibrium [Req]) at each concentration (C), and then fit to a 1:1 binding isotherm (Req vs. C) plot.
With B1 the Kd was 7 nM. Binder B6 has a Kd of 0.98 nM. B3 showed a Kd of 13 nM. Binder B7 has a Kd of 0.98 nM.

Each binder was assayed against T2, human FcγRIIA in the same assay as above.
Method: as §2
In the case of B1, the Kd is reported as 1300 nM. Binder B6 has a Kd of 1260 nM. B3 gave a Kd of 1190 nM. B7 gave a Kd of 1250 nM.

The binders below were run against T3, human FcγRIIb in the same assay as above.
Method: as §2
In the case of B1, the Kd is reported as 2750 nM. B6 showed a Kd of 2560 nM. B3 gave a Kd of 2790 nM. Binder B7 has a Kd of 2400 nM.

These binders were tested against T7, human FcγRIIIA-158F (human, UniProt P08637 17-208) in the same assay as above.
T7 construct: also called FcgRIIIa (158F)
T7 sequence (P08637 17-208 limits assumed): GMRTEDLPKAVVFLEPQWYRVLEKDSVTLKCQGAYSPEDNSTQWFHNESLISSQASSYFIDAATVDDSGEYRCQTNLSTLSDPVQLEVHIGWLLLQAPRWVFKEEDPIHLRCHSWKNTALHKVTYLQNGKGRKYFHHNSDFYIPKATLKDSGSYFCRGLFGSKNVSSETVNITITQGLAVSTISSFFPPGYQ
Method: as §2
With B1 the Kd was 1990 nM. Work on B6 yielded a Kd of 223 nM. With B3 the Kd was 1780 nM. With B7 the Kd was 216 nM.

Each binder was assayed against T8, human FcγRIIIA-158V (human, UniProt P08637 17-208) in the same assay as above.
T8 construct: also called FcgRIIIa (158V); hFcgRIIIA-158V
T8 sequence (P08637 17-208 F176V limits assumed): as the sequence (P08637 17-208 limits assumed) above, with F160V counted along it
Method: as §2
Binder B6 has a Kd of 45 nM. With B7 the Kd was 40 nM.
